Measurements from patent US20170362286A1.
No end group written: not given here.

Target: mKv1.3 (murine voltage-gated potassium channel Kv1.3) (mouse) (UniProt P16390)
Assay: cell-based or functional assay

mKv1.3 (murine voltage-gated potassium channel Kv1.3) (mouse), sequence (P16390 whole entry): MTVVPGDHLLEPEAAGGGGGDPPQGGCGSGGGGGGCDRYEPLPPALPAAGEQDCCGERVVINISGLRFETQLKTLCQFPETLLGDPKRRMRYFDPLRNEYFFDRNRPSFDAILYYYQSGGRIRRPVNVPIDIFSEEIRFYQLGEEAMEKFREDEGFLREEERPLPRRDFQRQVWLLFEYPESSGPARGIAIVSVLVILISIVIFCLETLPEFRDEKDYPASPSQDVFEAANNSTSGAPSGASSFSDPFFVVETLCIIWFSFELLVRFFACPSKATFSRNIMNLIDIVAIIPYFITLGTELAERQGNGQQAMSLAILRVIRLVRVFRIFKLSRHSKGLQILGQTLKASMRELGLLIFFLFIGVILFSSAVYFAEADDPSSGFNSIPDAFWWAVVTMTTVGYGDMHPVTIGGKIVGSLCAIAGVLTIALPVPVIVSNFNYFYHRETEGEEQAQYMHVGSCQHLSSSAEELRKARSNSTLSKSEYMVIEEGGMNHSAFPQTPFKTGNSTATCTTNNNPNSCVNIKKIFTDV

With EWSSRSCIDTIPKSRCTAFQCKHSMKYRLSFCRKTCGTC (not fully specified; ends and bridges not checked) [[EWSS]ShK] the IC50, potency against Kv1.3 channels (patch clamp) was 0.033 nM and the Selectivity (for Kv1.3 over Kv1.1, ratio of IC50s) was 158 fold.
